The target in the experiment is His-tagged human GFRAL (recombinant soluble GFRAL protein, R&D catalogue no. 9647-GR-050) (human) (UniProt Q6UXV0). Description: SPR sandwich assay: row antibody captured via anti-Fc, GFRAL antigen added, then mAbQ injected as analyte (competitor: mAb Q).
Sequence of His-tagged human GFRAL (recombinant soluble GFRAL protein, R&D catalogue no. 9647-GR-050) (human) (Q6UXV0 19-351): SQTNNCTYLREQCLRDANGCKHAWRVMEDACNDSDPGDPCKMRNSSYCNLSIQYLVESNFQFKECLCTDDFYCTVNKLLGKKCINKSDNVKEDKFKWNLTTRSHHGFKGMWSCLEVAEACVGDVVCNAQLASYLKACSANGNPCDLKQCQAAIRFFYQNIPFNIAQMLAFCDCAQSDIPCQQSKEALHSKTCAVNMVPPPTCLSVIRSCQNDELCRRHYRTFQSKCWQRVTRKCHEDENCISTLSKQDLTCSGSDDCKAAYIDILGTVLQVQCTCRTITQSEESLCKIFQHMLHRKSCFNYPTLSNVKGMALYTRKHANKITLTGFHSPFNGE

As to IgG4PE (negative control) (antibody), the resonance units after mAbQ injection (resonance units) was found to be 4.

The values are drawn from patent US20240182585A1.
